B1: TPR t1 (parent)
chain: GACCAAUCUGCCCUCAGAGCUCGAGAACAUCUUCGGAUGCAGAGGAGGCAGGCUUCGGUGGCGCGAUAGCGCCAACGUCCUCAACCUCCAAUGCAUCCCACCACAUGAUGAUGCCUGAAGAGCCUUGGUUUUUUG

The variants in this data set derive from B1. Briefly: polymerase ribozyme fitness, log enrichment relative to wild type (log ratio); higher = more active; in vitro selection for triplet polymerase activity. The gist of the method:
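A single round of triplicate in vitro selection, including frozen incubation at −7 °C, was applied to PCR-built, transcribed mutant libraries of each subunit of a heterodimeric triplet polymerase ribozyme. Illumina sequencing of input and output libraries retained genotypes with ≥10 input reads and ≥1 read per output. Fitness is the base-2 logarithm of genotype enrichment divided by wild-type enrichment, from inverse-variance-weighted replicate averages.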
C62U U112G C115A U126G: the “polymerase ribozyme fitness (log ratio)” value was -2.54.
The result for C62U C98G reads -5.88; that for G61U C72U, -0.409; that for C62G A95U, -2.37.
In the case of G61A C64U C86A it was -4.48; in that of G61U U87G U106A, -0.129.
In the case of C62U U78A U96C it was -0.0957; in that of G61U C72U U131A, -0.274; in that of G61C C115U, -3.07.
As for G60U C94G G110C G117A, the “polymerase ribozyme fitness (log ratio)” value is -7.56.
The result for G61C C114G reads -4.27; that for C62U A74C C89A C104A U112C, -2.59; that for G61C A100U A111G G113A, -4.64.
The result for G61U G120A reads 0.595; that for G61A U87G, 0.506.
In the case of G61A G120C it was 1.14.
In the case of G61A G120U, the “polymerase ribozyme fitness (log ratio)” value worked out at 0.215.
In the case of G60U C86U it was -1.37.
Consider C62U G117A U131A, for which the “polymerase ribozyme fitness (log ratio)” value is -1.44.
The result for G60U A121G reads 1.76; that for G61U C102G G120C, -6.46.
In the case of C62A G113U C114G it was -4.19; in that of G63A U112G, -1.1; in that of C62A C97U U106A, -1.52.
With G61U U116A, the “polymerase ribozyme fitness (log ratio)” value is -3.38.
The result for G63A C102U reads -3.27; that for G61U A108C, -3.81; that for G61U C97A C124A, -2.39.
In the case of G60C U81C U116A it was -2.88; in that of G60U C79U U81A C97A U106A, -6.56; in that of G60U C89U U92A A118U, -2.14.
Regarding G61A U106A G113C, the “polymerase ribozyme fitness (log ratio)” value is -1.85.
In the case of C62U G93C A105U it was -3.5.
For the variant G61A G77A A91G, the “polymerase ribozyme fitness (log ratio)” value was -2.58.
In the case of G63A C114A it was -1.9; in that of G60U C123A, 0.751.
The result for G61A G65A reads -3.94; that for G61A U92A, -2.76.
Regarding G61A C88U U131G, the “polymerase ribozyme fitness (log ratio)” value was -0.555.
In the case of G63A U81A it was -2.01; in that of G63C A91U C114A A118G U132A, -4.5; in that of G61C C101A U112G, -3.98.
Turning to G60C U78A A91U, the “polymerase ribozyme fitness (log ratio)” value was -2.07.
For G63A C64U C73G C80U G93A C97U G117U, the “polymerase ribozyme fitness (log ratio)” value is -6.14.
In the case of G61U G69U G120A it was 0.591; in that of C62U G69C C102G U130G, -7.34.
In the case of C62U G128C U133C it was -2.74; in that of C62A C72U A75C C85A U129C, -2.55.
For the variant C62A U78G U87C, the “polymerase ribozyme fitness (log ratio)” value was -1.47.
With G61U C88U, the “polymerase ribozyme fitness (log ratio)” value was -0.259.
G61A A74C G120U: the “polymerase ribozyme fitness (log ratio)” value was -2.24.
In the case of G61A C97G C124U it was -2.04; in that of C62G U129A, -3.98.
The result for C62U A74U U78A reads -0.615; that for G61U U81G C86U G120U U133A, -4.06.
As to G60C G113C, the “polymerase ribozyme fitness (log ratio)” value is -2.72.
As for G61C C97A C124G, the “polymerase ribozyme fitness (log ratio)” value is -5.48.
With C62U C82U, the “polymerase ribozyme fitness (log ratio)” value was 1.12.
The result for G63A C82G G117U C123G reads -3.95.
With G61U C104U A108C A121U, the “polymerase ribozyme fitness (log ratio)” value was -2.95.
In the case of G63C A90G G93U A118G it was -1.31; in that of G60U G77C C89U U132A, -0.345.
The result for C62U G77A U87A A111U G122U reads -5.7; that for C62U G93U U112G U129A, -3.65; that for G61C A111G U116G C124A U131G, -3.87.
Regarding G61A U106C, the “polymerase ribozyme fitness (log ratio)” value is 0.151.
The result for G61U U109G reads -4.68; that for C62A A74C, -2.68.
In the case of G61C G77U U112A it was -2.37.
In the case of G60C C104U U126A it was -1.46.
As to G61C U92C, the “polymerase ribozyme fitness (log ratio)” value is -2.59.
In the case of C62U C104U A108C it was -6; in that of G61U G117C, -2.09; in that of G61U G117U, -1.34.
Turning to G63A A121C G135A, the “polymerase ribozyme fitness (log ratio)” value came out at 0.83.
The result for C62U A84C G117C C124A reads -2.09.
In the case of C62A C115U, the “polymerase ribozyme fitness (log ratio)” value was -2.53.
The result for C62U U78C reads -0.402.
In the case of G63A C98G it was -6.74; in that of G63A C98U, -2.12; in that of G61A C79U C88A U129G, -1.53.
Turning to G63C A108U A121U G122A, the “polymerase ribozyme fitness (log ratio)” value was -7.45.
In the case of C62A U87C it was -0.344.
The result for G63C C85G reads -1.96.
In the case of G61U U133A it was -0.172; in that of C62G C101U, -1.28; in that of G61A C97A C124U, -3.09.
As to G61U C62A, the “polymerase ribozyme fitness (log ratio)” value was -5.14.
For G63A C97U, the “polymerase ribozyme fitness (log ratio)” value was -1.46.
The result for G60C U109G reads -5.41.
The result for G60C G128C reads -2.73.
In the case of C62A C98U C123A it was -2.16; in that of G61A C114A, -0.372.
For G61A C114U, the “polymerase ribozyme fitness (log ratio)” value is -1.49.
In the case of G63A C115U it was -1.45; in that of G61A G77U, 0.142; in that of G60U G61A U106C G128A U130A, -4.75.
The result for G61C C70U C114U G127U reads -4.4.
In the case of G63A C101A it was -3.39; in that of C62U U109A G117U A119C, -7.11; in that of G61A U92G G113U, -4.27.
With G63A C73G, the “polymerase ribozyme fitness (log ratio)” value is -4.71.
As for G61A A74C C79A U131G, the “polymerase ribozyme fitness (log ratio)” value was -1.98.
The result for G60C C98G reads -6.74; that for G63C C80U G110A, -2.48; that for G60C G69U G93A G113C, -5.05.
In the case of G60U C101U A111C it was 0.104; in that of C62G U106C U131A, -2.52; in that of G63A C79U, -1.07.
The result for G63A C79G reads -3.65; that for G61U G69C C72U A111C, -6.94; that for G61A C79U C104A C124A, 0.783.
With G61A A74U G110U A118G, the “polymerase ribozyme fitness (log ratio)” value was -4.67.
In the case of G63A it was -0.907; in that of G63C, -0.722; in that of G61C G120C, -1.04.
As for G60U U92C U106C G107A U112C, the “polymerase ribozyme fitness (log ratio)” value is -6.06.
For the variant C62A A75U A111C, the “polymerase ribozyme fitness (log ratio)” value was -1.81.
With G61A A111G, the “polymerase ribozyme fitness (log ratio)” value came to 0.971.
In the case of C62U G110C it was -3.93; in that of C62A U125G, -1.43; in that of G61A G93U, -0.737.
In the case of G61A G63A it was -4.85.
On to C62A C79A G117C, for which the “polymerase ribozyme fitness (log ratio)” value is -6.
The result for G61A C89A A90U A91G reads -1.77; that for G61U U78G C79U G122U, 0.33.
The result for C62G U87C A111G reads -3.32; that for G60U C114A, -1.45; that for G60U G63U G113U G117U, -5.19.
In the case of G63A U129G it was -0.825.
For C62A C97U, the “polymerase ribozyme fitness (log ratio)” value was -1.52.
In the case of G60C C123U it was 0.343; in that of G60U G110C, -2.76; in that of G61A G69C, -3.18.
The result for G63A G135U reads -1.49.
The result for G61C U78A U116G reads -1.8; that for C62G C99U A121G, -4.31; that for G61U A91U, -1.05.
For C62U A95U, the “polymerase ribozyme fitness (log ratio)” value is -2.57.
For C62U A84G C101A, the “polymerase ribozyme fitness (log ratio)” value is -1.66.
The result for C62U C115G U129A reads -3.05.
In the case of G61U G77C C79U, the “polymerase ribozyme fitness (log ratio)” value is -0.442.
In the case of C62A C101U C114U C124A it was -3.63; in that of G61C C98U, -2.55; in that of G60C G117A, -0.79.
For C62U A118G, the “polymerase ribozyme fitness (log ratio)” value was 0.164.
The result for G61U C70U reads -2.03; that for G63C C97G, -4.59.
In the case of G61A G113C G135A it was -2.34; in that of G63A C70A A95C, -3.3; in that of C62U A68G C99U U133G, -6.26.
The result for G61A A121U reads 2.32; that for C62U G120U, -0.189.
For G61A U112C, the “polymerase ribozyme fitness (log ratio)” value was 1.57.
The result for G61C C88A reads -2.91; that for G63A G127U, -1.36.
In the case of C62A U131A G135A it was -2.64.
The result for C62G A121U reads 0.647; that for C62G G93U, -2.74; that for C62G G93A, -1.76.
On to G61C A90U, for which the “polymerase ribozyme fitness (log ratio)” value is -4.47.
In the case of G60U G65U A121C it was -6.44.
Regarding G61A A103U, the “polymerase ribozyme fitness (log ratio)” value is -4.95.
The result for G61A A103G reads -2.38; that for G61A A84U G117A, -1.64; that for G61A U106C G122A, -0.878.
In the case of G61U U131C it was 0.233.
